The values below come from patent publication US20240010730A1 (SHANGHAI HUAOTA BIOPHARMACEUTICAL, published 2024).

The target of test [1] is T1, human TIGIT on CHOK1-huTIGIT-2A3 cells (human, UniProt Q495A1 22-244).
T1 construct: whole, on cells; also called cells expressing the human TIGIT
T1 sequence (looked up): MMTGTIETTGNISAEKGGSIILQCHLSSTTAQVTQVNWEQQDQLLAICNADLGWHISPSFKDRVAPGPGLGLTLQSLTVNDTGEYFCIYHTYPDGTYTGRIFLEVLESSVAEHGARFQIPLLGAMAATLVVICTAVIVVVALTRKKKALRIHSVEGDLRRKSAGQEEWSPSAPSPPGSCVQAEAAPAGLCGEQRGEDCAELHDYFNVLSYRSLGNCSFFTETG
Briefly: flow cytometry competition with huCD155-moFc on CHOK1-huTIGIT-2A3 cells. Here is the method: After reaction, the 96-well U-shaped plate was resuspended with 1% BSA/PBS, centrifuged (300 g×3 min) to discard the supernatant, and washed once in such way; and Alexa488-goat anti-mouse-Fc (Jackson ImmunoResearch, #115-545-071) diluted at 1:300 was added to react for 15 min in the dark at room temperature. After reaction, the 96-well U-shaped plate was resuspended with 1% BSA/PBS, centrifuged (300 g×3 min) to discard the supernatant, washed three times in such a way, and finally resuspended with 100 μL of 1% BSA/PBS for each wall; and the fluorescence intensity of an FITC channel was detected with a flow cytometer (BD, #CantoII).

In test [2] the target is T1, human TIGIT on CHOK1-huTIGIT-2A3 cells. Briefly: flow cytometry on CHOK1-huTIGIT-2A3 cells. Here is the method:
All chimeric antibodies and humanized antibodies were diluted to 20 μg/ml with 1% BSA in PBS solution (1% BSA/PBS), were added to a 96-well U-shaped plate at 20 μL per well; and a negative control (with 1% BSA/PBS added only) was set up at the same time. The suspension of cells (CHOK1-huTIGIT-2A3, Huabo Biopharm) expressing human TIGIT during the logarithmic growth phase were centrifuged (1000 rpm×5 min) to discard the culture medium; and the cells were resuspended with 1% BSA/PBS until the density of viable cells was 1×10⁶/mL, and were added, at 20 μL (2×10⁴ cells) per well, to the 96-well U-shaped plate with the anti-TIGIT antibody to react for 30 min at room temperature. After reaction, the 96-well U-shaped plate was resuspended with 1% BSA/PBS, centrifuged (300 g×3 min) to discard the supernatant, and washed once in such a way; and PE-goat anti-human-Fc (Jackson ImmunoResearch, #109-115-098) diluted at 1:200 was added to react for 15 min in the dark at room temperature. After reaction, the 96-well U-shaped plate was resuspended with 1% BSA/PBS, centrifuged (300 g×3 min) to discard the supernatant, washed three times in such a way, and finally resuspended with 100 μL of 1% BSA/PBS for each wall; and the fluorescence intensity of a PE channel was detected with a flow cytometer (BD, #CantoII).

The target of test [3] is T2, Human PD-L1 (SPR analyte, Example 7) (human, UniProt Q9NZQ7 19-238, limits assumed). Briefly: SPR (Biacore 8K), antibody captured by anti-human chip, antigen analyte, 1:1 model. Here is the method: (§1) The Anti-Human Capture-CMS chip (GE, #BR-1005-30) was prepared according to the method for conjugating the Human Antibody Capture Kit (GE, #BR-1008-39) to the Amino Conjugation Kit (GE, BR-1000-50).
T2 sequence (Q9NZQ7 19-238 limits assumed): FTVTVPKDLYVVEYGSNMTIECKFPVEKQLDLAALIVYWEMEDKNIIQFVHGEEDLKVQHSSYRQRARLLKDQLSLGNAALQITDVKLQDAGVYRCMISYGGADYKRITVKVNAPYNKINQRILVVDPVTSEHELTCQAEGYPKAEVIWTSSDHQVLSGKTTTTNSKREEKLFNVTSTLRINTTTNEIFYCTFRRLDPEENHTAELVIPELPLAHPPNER
For orientation: SPR reads the build-up and loss of mass on a sensor chip optically.

Test [4] addresses T3, Human TIGIT (SPR analyte, Example 7) (human, UniProt Q495A1 22-141, limits assumed).
T3 sequence (looked up): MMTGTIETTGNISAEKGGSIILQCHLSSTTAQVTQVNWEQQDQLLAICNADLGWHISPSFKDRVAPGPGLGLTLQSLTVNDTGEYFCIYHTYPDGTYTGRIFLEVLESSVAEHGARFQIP
The description is as above. On the procedure:
as §1

Test [5] deals with PD-L1 on CHO-K1-0S8-PD-L1-8D6 cells. Briefly: cell-based or functional assay.
Sequence of PD-L1 on CHO-K1-0S8-PD-L1-8D6 cells (Q9NZQ7 whole entry): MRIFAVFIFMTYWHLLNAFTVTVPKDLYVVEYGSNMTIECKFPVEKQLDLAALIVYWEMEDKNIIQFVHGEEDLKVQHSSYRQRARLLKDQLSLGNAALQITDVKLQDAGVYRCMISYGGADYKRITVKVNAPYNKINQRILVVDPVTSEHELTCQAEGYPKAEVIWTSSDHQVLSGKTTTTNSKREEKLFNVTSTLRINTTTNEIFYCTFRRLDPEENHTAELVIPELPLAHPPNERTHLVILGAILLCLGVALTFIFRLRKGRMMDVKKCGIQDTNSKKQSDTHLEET
Test [6] concerns the target TIGIT on Jurkat-TIGIT-22G8 cells. Nature of the test: cell-based or functional assay.
Test [7] addresses T2, Human PD-L1 (SPR analyte, Example 7). Nature of the test: SPR (Biacore 8K), antibody captured by anti-human chip, antigen analyte, 1:1 model. Here is the method:
as §1
This is another data set of the same source.

The target in test [8] is T3, Human TIGIT (SPR analyte, Example 7). Described as above. On the procedure: as §1
The source holds these as a separate data set.

Positions count from the first letter of the chain named. Read-outs that look alike come from different tables or passages of the source.

B1: 900428 (antibody, human IgG1, kappa, L234A L235A, V domains shown)
VH: DVQLQESGPGLVKPSQSLSLTCTVTGYSITSDYAWNWIRQFPGNRLEWMGYISYSGAPRYNPSLKSRISITRDTSKNQFFLQLSFVTTEDTATYYCASLGTDYYAMDYWGQGTSVIVSS
VL: DIVMTQSHKFMFTSVGDRVSITCKASQHVSNAVAWYQQKPGQSPKLLIHSASYRYTGVPDRFTGRGSGTDFTFTINSVQAEDLAVYYCQQYYSLPWTFGGGTKLEIKR
notes: also called anti-TIGIT chimeric antibody 900428
Usually IC50 stands for the point on the concentration scale where inhibition reaches its midpoint. Read a high IC50 as a need for much substance. The EC50 is the concentration that produces a half-maximal response. Low readings indicate a more potent agent, high ones a less potent agent. With B1, the IC50 in test [1] turned out to be 0.069 µg/mL. In test [2], this molecule displayed an EC50 of 0.075 µg/mL.

B2: 900423 (antibody, human IgG1, kappa, L234A L235A, V domains shown)
VH: B1 VH
VL: B1 VL with T63I, N76S
notes: also called anti-TIGIT chimeric antibody 900423
As for B2, in test [1], the IC50 turned out to be 0.065 µg/mL. In test [2], this molecule displayed an EC50 of 0.06 µg/mL.

B3: 900691 (bispecific antibody, human IgG1, kappa)
heavy: not shown
light: DVVMTQTPLSLSVTPGQPASISCKSSQSLANSYGNTYLSWYLHKPGQSPQLLIYGISNRFSGVPDRFSGSGSGTDFTLKISRVEAEDVGVYYCLQGTHQPPTFGQGTKLEIKRTVAAPSVFIFPPSDEQLKSGTASVVCLLNNFYPREAKVQWKVDNALQSGNSQESVTEQDSKDSTYSLSSTLTLSKADYEKHKVYACEVTHQGLSSPVTKSFNRGEC
notes: also called PD-L1-IgG-TIGIT-scFv
As usually defined, the Kd is the concentration at which binding is half-saturated. Read a high Kd as a looser complex. A word on the koff: it is the rate constant with which the complex falls apart. A low value points to slow dissociation. A word on the kon: it is the rate constant with which the complex forms. As to B3, in test [3], the Kd was determined as 2.24 nM, the koff was determined as 0.000481 s⁻¹ and the kon was 214000 M⁻¹ s⁻¹. In test [4], binding was characterised by a dissociation constant (Kd) of 0.0925 nM, the koff is 9.13e-05 s⁻¹ and the kon came to 987000 M⁻¹ s⁻¹. Moreover, the “EC50 (nM), luciferase reporter, Jurkat-NFAT-PD-1-5B8 cells with CHO-K1-0S8-PD-L1-8D6 cells” value (“EC50 (nM), luciferase reporter” for short) in test [5] came to 1.84 nM.

B4: 900693 (bispecific antibody, human IgG1, kappa)
heavy: not shown
light: B3 light
notes: as for B3
In test [3], B4 gave a Kd of 2.27 nM, a koff of 0.000498 s⁻¹ and a kon of 219000 M⁻¹ s⁻¹. In test [4], this molecule had a Kd of 0.0863 nM, a koff of 8.03e-05 s⁻¹ and a kon of 930000 M⁻¹ s⁻¹. Also, in test [5], the “EC50 (nM), luciferase reporter” value stood at 1.98 nM.

B5: 900692 (bispecific antibody, human IgG1, kappa)
heavy: not shown
light: B3 light
notes: as for B3
In test [3], B5 displayed a Kd of 2.79 nM, a koff of 0.00057 s⁻¹ and a kon of 204000 M⁻¹ s⁻¹. In test [4], this molecule yielded a Kd of 0.0751 nM, a koff of 9.11e-05 s⁻¹ and a kon of 1.21e+06 M⁻¹ s⁻¹. In addition, the “EC50 (nM), luciferase reporter” value in test [5] came to 2.09 nM.

B6: HB0031 (antibody, human IgG1, kappa, V domains shown)
VH: QVQLQESGPGLVKPSETLSLTCTVSGYSITSDYAWIWIRQPPGKGLEWIGYITSSGSTYYNPSLKSRVTFSVDTSKNQFSLKLSSVTAADTATYYCARLDFGNYGGAMDYWGQGTLVTVSS
VL: DIQMTQSPSSLSASVGDRVTITCKASQHVSTALAWYQQKPGKAPKLLIYSASYLQSGVPSRFSGSRSGTDFTLTISSLQPEDFATYYCQQHYITPYTFGQGTKLEIKR
notes: Humanized anti-TIGIT IgG1; also called 900464
B6 had an IC50 in test [1] of 0.0665 µg/mL. This molecule showed a concentration for a half-maximal effect (EC50) in test [2] of 0.0581 µg/mL.

B7: HB0033 (antibody, human IgG1, kappa, V domains shown)
VH: B6 VH with K44N, G45K
VL: B6 VL
notes: Humanized anti-TIGIT IgG1; also called 900476
For B7, the IC50 in test [1] was found to be 0.056 µg/mL. Also, in test [2], the midpoint of the response, the EC50, lay at 0.0514 µg/mL.

B8: HB0032 (antibody, human IgG1, kappa, V domains shown)
VH: B6 VH with G45K
VL: B6 VL with L33V, A34N, L54R, R66G
notes: Humanized anti-TIGIT IgG1; also called 900466
Take B8: in test [1], the IC50 is 0.0919 µg/mL. In addition, in test [2], the EC50 was 0.0785 µg/mL.

B9: 900686 (bispecific antibody, human IgG1, kappa)
heavy: not shown
light: DIQMTQSPSSLSASVGDRVTITCRASQHVSTAVNWYQQKPGKAPKLLIYSASYLYSGVPSRFSGSRSGTDFTLTISSLQPEDFATYYCQQHYITPYTFGQGTKLEIKRTVAAPSVFIFPPSDEQLKSGTASVVCLLNNFYPREAKVQWKVDNALQSGNSQESVTEQDSKDSTYSLSSTLTLSKADYEKHKVYACEVTHQGLSSPVTKSFNRGEC
notes: also called TIGIT-IgG-PD-L1-scFv
Consider B9, for which, in test [6], the “EC50 (nM), IL2 secretion of Jurkat-TIGIT-22G8 cells with PHA and CD155” value (shortened to “EC50 (nM), IL2 secretion”) was 12.9 nM. In test [7], the Kd came out at 0.893 nM, the koff stood at 0.000419 s⁻¹ and the on-rate (kon) is 469000 M⁻¹ s⁻¹. In test [8], this molecule returned a Kd of 0.0476 nM, a koff of 0.0002 s⁻¹ and a kon of 4.19e+06 M⁻¹ s⁻¹.

B10: 900681 (bispecific antibody, human IgG1, kappa)
heavy: not shown
light: B9 light
notes: as for B9
For the molecule B10, the “EC50 (nM), IL2 secretion” value in test [6] came to 8.96 nM. In test [7], binding was characterised by a dissociation constant (Kd) of 1.47 nM, the koff is 0.000427 s⁻¹ and the kon was 290000 M⁻¹ s⁻¹. For the same molecule, in test [8], the Kd was 0.0693 nM, the koff came out at 0.000245 s⁻¹ and the kon was determined as 3.53e+06 M⁻¹ s⁻¹.

B11: 900684 (bispecific antibody, human IgG1, kappa)
heavy: not shown
light: B9 light
notes: as for B9
Regarding B11, the “EC50 (nM), IL2 secretion” value in test [6] came out at 11.1 nM. Further, in test [7], binding was characterised by a dissociation constant (Kd) of 1.29 nM, the koff was determined as 0.000376 s⁻¹ and the kon came to 291000 M⁻¹ s⁻¹. In test [8], this molecule displayed a Kd of 0.0502 nM, a koff of 0.000184 s⁻¹ and a kon of 3.67e+06 M⁻¹ s⁻¹.

B12: 900683 (bispecific antibody, human IgG1, kappa)
heavy: not shown
light: B9 light
notes: as for B9
For B12, the “EC50 (nM), IL2 secretion” value in test [6] came to 8.64 nM. For the same molecule, in test [7], the Kd is 1.05 nM, the koff is 0.000492 s⁻¹ and the kon is 469000 M⁻¹ s⁻¹. Besides, in test [8], the Kd is 0.0478 nM, the koff turned out to be 0.000196 s⁻¹ and the kon is 4.1e+06 M⁻¹ s⁻¹.

B13: 900687 (bispecific antibody, human IgG1, kappa)
heavy: not shown
light: B9 light
notes: as for B9
For B13, the “EC50 (nM), IL2 secretion” value in test [6] is 11 nM. In addition, in test [7], the Kd stood at 1.37 nM, the koff worked out at 0.00038 s⁻¹ and the kon came out at 278000 M⁻¹ s⁻¹. In test [8], this molecule registered a Kd of 0.0515 nM, a koff of 0.000204 s⁻¹ and an association rate constant (kon) of 3.96e+06 M⁻¹ s⁻¹.

B14: 900685 (bispecific antibody, human IgG1, kappa)
heavy: not shown
light: B9 light
notes: as for B9
In the case of B14, the “EC50 (nM), IL2 secretion” value in test [6] is 12.1 nM. Also, in test [7], the affinity, expressed as Kd, was 2.76 nM; the koff was 0.000527 s⁻¹; the kon stood at 191000 M⁻¹ s⁻¹. In test [8], the dissociation constant (Kd) turned out to be 0.0428 nM, the koff was 0.00021 s⁻¹ and the kon was found to be 4.89e+06 M⁻¹ s⁻¹.

B15: 900424 (antibody, human IgG1, kappa, L234A L235A, V domains shown)
VH: DVQLQESGPGLVKPSQSLSLTCTVTGYSITSDYAWIWIRQFPGNKVEWMGYITSSGSTSYNPSLKSRISFTRDTSKNQFFLQLTSVTTEDTATYYCARLDFGNYGGAMDYWGQGTSVTVSS
VL: DIVMTQSHKFMSTSIGDRVSITCKASQHVSTAVAWYQQKPGQSPKLLIYSASYRYTGVPDRFTGSRSGTDFTFTISSVQAEDLAVYYCQQHYITPYTFGGGTKLEIKR
notes: Chimeric form of B3/29F6; also called ADCC KO type human-mouse chimeric antibody (number 900424)
The molecule B15 yielded an IC50 in test [1] of 0.062 µg/mL. The same molecule showed an EC50 in test [2] of 0.053 µg/mL.
